The test system of series [1] is Aurora-A. As to conditions: cited from earlier work; for effect on Aurora-A activity: ADP-Glo based assay, ref Park et al. 2023 Figure 3 F-H. An excerpt:
page 22: have elected to test PLK1 localization. In the absence of a direct test, they could nevertheless refer to the observations of Joukov et al. We find that PLK1 localisation is normal in ∆11 cells and have include d this new data (Fig. EV8) -Figure 5A-B: The scheme could be made clearer. Why is CEP192 depicted in blue and grey in panel A, green and grey in panel B (grey in scheme of excision sites). Why not use color consistently? […] We have ch ...

The target in series [2] is T1, human CEP192 468–533 (human, UniProt Q8TEP8 468-533).
T1 construct: also called CEP192_(506-527_F); source: E. coli B834 RIL, purified (HisTrap, TEV cleavage, SEC); for crystallisation co-expressed with Aurora-A^M7KD and co-purified; not shown: His6, N-terminal, cleaved; SUMO, N-terminal, cleaved
T1 sequence (looked up): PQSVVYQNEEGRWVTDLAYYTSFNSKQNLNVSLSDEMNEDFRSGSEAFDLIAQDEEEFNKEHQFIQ
The series is described as follows: ITC; 250 μM Aurora-A in the syringe, 25 μM CEP192 construct in the cell; 25 °C; 20 mM tris pH 7.5, 200 mM NaCl, 10% glycerol, 5 mM MgCl2.

The target of series [3] is T2, Aurora-A^CAKD (Aurora-A kinase domain, aa 122–403 C290A, C393A), unphosphorylated (human, UniProt O14965 122-403, C290A | C393A).
T2 construct: Aurora-A kinase domain, human, residues 122-403, variant lacking surface cysteines; also called Aurora-A 122–403 C290A C393A; unphosphorylated Aurora-A^CAKD; source: E. coli RIL, co-expressed with lambda phosphatase, purified (HisTrap, TEV cleavage, SEC); not shown: His6, N-terminal, cleaved
T2 sequence (looked up): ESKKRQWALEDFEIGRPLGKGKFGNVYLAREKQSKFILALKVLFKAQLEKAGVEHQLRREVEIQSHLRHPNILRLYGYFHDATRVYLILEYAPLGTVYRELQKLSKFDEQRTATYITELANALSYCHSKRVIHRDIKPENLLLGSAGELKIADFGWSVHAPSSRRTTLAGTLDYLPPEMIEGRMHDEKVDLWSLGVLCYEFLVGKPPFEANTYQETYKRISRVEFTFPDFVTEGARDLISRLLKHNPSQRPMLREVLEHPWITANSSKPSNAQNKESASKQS
The series is described as follows: fluorescence polarisation; competition: 10 μM unphosphorylated Aurora-A^CAKD preincubated with 100 nM FAM-TPX2 7-43, CEP192 competitor serially diluted; 25 mM HEPES pH 7.5, 150 mM NaCl, 2 mM DTT, 5 mM MgCl2, 0.01% Tween 20. As to conditions: both partners purified.

The target of series [4] is T2, Aurora-A^CAKD (Aurora-A kinase domain, …). Description: fluorescence polarisation; competition: 25 μM Aurora-A kinase domain preincubated with 100 nM FAM-TACC3 522-536, CEP192 competitor serially diluted; 25 mM HEPES pH 7.5, 150 mM NaCl, 2 mM DTT, 5 mM MgCl2, 0.01% Tween 20. The following applies: both partners purified.
Series [5] concerns the target T3, unphosphorylated Aurora-A CAKD (Homo sapiens, UniProt O14965, C290A/C393A).
T3 construct: 10 μM Aurora-A kinase domain (phosphorylated or unphosphorylated C290A C393A 122–403); His (N, cleaved yes); made in house; host or cells: E. coli RIL, co-expressed with lambda phosphatase
T3 sequence (O14965 122-403 C290A/C393A): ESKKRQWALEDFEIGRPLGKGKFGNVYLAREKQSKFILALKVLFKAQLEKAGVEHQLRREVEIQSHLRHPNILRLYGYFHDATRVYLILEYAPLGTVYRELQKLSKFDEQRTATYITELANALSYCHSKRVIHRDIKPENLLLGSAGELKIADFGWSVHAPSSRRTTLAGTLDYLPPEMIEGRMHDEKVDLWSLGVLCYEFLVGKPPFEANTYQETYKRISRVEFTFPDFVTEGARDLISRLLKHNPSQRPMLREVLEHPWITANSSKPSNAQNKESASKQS
The series is described as follows: Fluorescence anisotropy competition with FAM-CEP192 501-533, unphosphorylated Aurora-A. As to conditions: competition with 100 nM FAM-CEP192 501-533, 10 μM unphosphorylated Aurora-A CAKD, n = 3. The format is binding. The procedure: (§1) Assays were performed in 25 mM HEPES pH 7.5, 150 mM NaCl, 2 mM DTT, 5 mM MgCl2, 0.01% Tween 20. For CEP192 and TPX2 competition assays 10 μM Aurora-A kinase domain (phosphorylated or unphosphorylated C290A C393A 122–403) was preincubated on ice with 100 nM FAM-TPX2 7-43 or 100 nM FAM-CEP192 501–533. For TACC3 competition, due to weaker binding, 25 μM Aurora-A kinase domain (phosphorylated or unphosphorylated C290A C393A 122–403) was preincubated with 100 nM FAM-TACC3 522-536. Serial dilutions of competitor (CEP192) were performed in triplicate into a low volume 384-well black plate, before the premixed Aurora-A and tracer were added. A control row included no tracer. Plates were left incubating for 1 h at room temperature before the fluorescence anisotropy was measured using a HIDEX plate reader, with excitation at 485 nm and emission at 535 nm. For direct binding experiments, the assay was performed as above, but the Aurora-A (122–403 C290A C393A or point mutants) was diluted across the plate from high to low concentration, before the addition of 50 nM tracer (FAM-CEP192 501–533) to three replicate rows. Buffer only was added to the control row.
(§2) Fluorescence anisotropy data were processed using Microsoft Excel to calculate intensity and anisotropy using the equation listed in (Yeo et al, [2013]). The IC50 and Kd values were calculated using Origin (OriginLab) where the data fitted to a sigmoid and are summarised in Appendix Table S3.

In series [6] the target is T4, phosphorylated Aurora-A CAKD (Homo sapiens, UniProt O14965, C290A/C393A).
T4 construct: 10 nM Aurora-A 122–403 C290A C393A phosphorylated protein; His (N, cleaved yes); made in house; host or cells: E. coli B834 (no lambda phosphatase)
T4 sequence (O14965 122-403 C290A/C393A): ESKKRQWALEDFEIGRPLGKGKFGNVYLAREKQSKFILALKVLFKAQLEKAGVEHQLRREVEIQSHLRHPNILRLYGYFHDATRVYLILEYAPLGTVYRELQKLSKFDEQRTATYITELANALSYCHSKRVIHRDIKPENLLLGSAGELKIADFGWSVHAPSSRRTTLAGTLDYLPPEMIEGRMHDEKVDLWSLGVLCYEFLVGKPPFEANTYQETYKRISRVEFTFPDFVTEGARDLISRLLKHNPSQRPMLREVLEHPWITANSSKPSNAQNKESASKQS
Description: Fluorescence anisotropy competition with FAM-CEP192 501-533, phosphorylated Aurora-A. The format is binding. As to conditions: competition with 100 nM FAM-CEP192 501-533, 10 μM phosphorylated Aurora-A CAKD, n = 3. The procedure:
as §1, §2

Series [7] concerns the target T4, phosphorylated Aurora-A CAKD. Description: ADP-Glo kinase assay, kemptide substrate. The format is biochemical. The procedure: Reactions were initiated by the addition of 10 μM ATP and 100 μM kemptide as substrate (Cambridge Bioscience Ltd). The reactions were incubated at room temperature for 60 min before 5 μl was transferred into 5 ul of ADP-Glo Reagent (Promega) in a 384-well low volume low binding plate (Greiner Bio-one). After a further 40 min at room temperature, 10 μl of kinase detection reagent was added to each well, and the reaction was allowed to incubate for an additional 30 min. Luminescence was measured on a HIDEX Sense plate reader (HIDEX) using a 1 s integration time. Control data was subtracted from the luminescence and three repeats were averaged before being fitted to a sigmoidal plot using Origin (OriginLab), where IC50 and EC50 values were calculated.

Where no end group is shown, it is not given here. FAM = 5(6)-carboxyfluorescein

As to “CEP192 506-536: short CEP192 fragment used by Park et al 2023 (EDFRSGSEAFDLIAQDEEEFNKEHQFIQEEN; UniProt Q8TEP8 506-536, looked up, fragment)”, in series [1], the “effect on Aurora-A activity” value was “no effect seen”.
In series [2], “Aurora-A^KD F165D/R205A (Aurora-A 122–403 R205A F165D) (from UniProt O14965 122-403) (domain or fragment)” returned a Kd of 26 µM and a stoichiometry N of 0.87.

B1: FAM-TPX2 7-43 (peptide, UniProt Q9ULW0 7-43, looked up)
peptide: {FAM}-SYSYDAPSDFINFSSLDDEGDTQNIDSWFEEKANLEN
notes: TPX2, residues 7-43; Made on Rink amide resin and labelled on resin after synthesis, so N-terminal label and C-terminal amide are likely; source: synthetic peptide
As for B1, the binding result in series [3] is “binds”.

B2: CEP192 501–533 peptide (unlabelled) (peptide, UniProt Q8TEP8 501-533, looked up)
peptide: SDEMNEDFRSGSEAFDLIAQDEEEFNKEHQFIQ
notes: Probably synthesised as the labelled peptides (Rink amide resin); source: peptide
Consider B2, for which, in series [4], the IC50 amounted to 29 µM.

B3: FAM-TACC3 522-536 (peptide, UniProt Q9Y6A5 522-536, looked up)
peptide: {FAM}-EESFRDPAEVLGTGA
notes: Made on Rink amide resin and labelled on resin after synthesis, so N-terminal label and C-terminal amide are likely; source: synthetic peptide
Take B3: the binding result in series [4] was “binds”.

B4: CEP192 521-757: recombinant GST-tagged CEP192 521-757 with the Xenopus CEP192 binding site (Joukov et al 2010) (protein, UniProt Q8TEP8 521-757, looked up, fragment)
chain: DEEEFNKEHQFIQEENIDAHNTSVALGDTSWGATINYSLLRKSRSTSDLDKDDASYLRLSLGEFFAQRSEALGCLGGGNNVKRPSFGYFIRSPEKREPIALIRKSDVSRGNLEKEMAHLNHDLYSGDLNEQSQAQLSEGSITLQVEAVESTSQVDENDVTLTADKGKTEDTFFMSNKPQRYKDKLPDSGDSMLRISTIASAIAEASVNTDPSQLAAMIKALSNKTRDKTFQEDEKQK
modifications: GST tag
Turning to B4, the “effect on Maskin/TACC3 phosphorylation by Aurora-A” value in series [1] (Xenopus egg extract, ref Joukov et al. (2010) Figure 4C) is “lower levels of Maskin/TACC3 phosphorylation”. For the same molecule, the “effect on Aurora-A autophosphorylation at Thr288 and Histone H3 phosphorylation” value in series [1] (recombinant GST-tagged CEP192, western blot, ref Joukov et al. (2010) Figure 3G) was “prevents autophosphorylation of Aurora-A at Thr288”.

B5: CEP192 1-995: longer CEP192 fragment used by Park et al 2023 (protein, UniProt Q8TEP8 1-995, looked up, fragment)
chain: MEDFRGIAEESFPSFLTNSLFGNSGILENVTLSSNLGLPVAVSTLARDRSSTDNRYPDIQASYLVEGRFSVPSGSSPGSQSDAEPRERLQLSFQDDDSISRKKSYVESQRLSNALSKQSALQMETAGPEEEPAGATESLQGQDLFNRASPLEQAQDSPIDFHLQSWMNNKEPKIVVLDAGKHFEDKTLKSDLSHTSLLENEKLILPTSLEDSSDDDIDDEMFYDDHLEAYFEQLAIPGMIYEDLEGPEPPEKGFKLPTNGLRQANENGSLNCKFQSENNSSLISLDSHSSETTHKESEESQVICLPGTSNSIGTGDSRRYTDGMLPFSSGTWGTEKEIENLKGIVPDLNSECASKDVLVKTLRAIDVKLNSDNFHDANANRGGFDLTDPVKQGAECPHQNKTVLHMDGCLDTETPTVSIQENVDVASLKPISDSGINFTDAIWSPTCERRTCECHESIEKNKDKTDLPQSVVYQNEEGRWVTDLAYYTSFNSKQNLNVSLSDEMNEDFRSGSEAFDLIAQDEEEFNKEHQFIQEENIDAHNTSVALGDTSWGATINYSLLRKSRSTSDLDKDDASYLRLSLGEFFAQRSEALGCLGGGNNVKRPSFGYFIRSPEKREPIALIRKSDVSRGNLEKEMAHLNHDLYSGDLNEQSQAQLSEGSITLQVEAVESTSQVDENDVTLTADKGKTEDTFFMSNKPQRYKDKLPDSGDSMLRISTIASAIAEASVNTDPSQLAAMIKALSNKTRDKTFQEDEKQKDYSHVRHFLPNDLEKSNGSNALDMEKYLKKTEVSRYESALENFSRASMSDTWDLSLPKEQTTQDIHPVDLSATSVSVRAPEENTAAIVYVENGESENQESFRTINSSNSVTNRENNSAVVDVKTCSIDNKLQDVGNDEKATSISTPSDSYSSVRNPRITSLCLLKDCEEIRDNRENQRQNECVSEISNSEKHVTFENHRIVSPKNSDLKNTSPEHGGRGSEDEQESFRPSTSPLSHSS
For B5, the “effect on Aurora-A activity” value in series [1] is on record as “no effect seen”.

B6: CEP192 468-533 Y487A/F490A: CEP192 468-533 mutant, two F-pocket residues replaced with alanine (protein)
chain: PQSVVYQNEEGRWVTDLAYATSANSKQNLNVSLSDEMNEDFRSGSEAFDLIAQDEEEFNKEHQFIQ
modifications: left off: His6, N-terminal, cleaved | SUMO, N-terminal, cleaved
notes: CEP192 468-533 mutant, two F-pocket residues replaced with alanine
For the molecule B6, the IC50 in series [5] is 6.9 µM; in series [6] it was 5.39 µM; in series [7] (10 nM phosphorylated Aurora-A CAKD, 10 μM ATP, 100 μM kemptide, 60 min, n = 3), more than 1000 nM. The “effect on Aurora-A kinase activity” value in series [7] (ADP-Glo, phosphorylated Aurora-A CAKD, kemptide, in words) is “less potent and less complete”.

B7: CEP192 468-533 F490D/F508D/I518D: CEP192 468-533 variant replacing hydrophobic residues recognising two regions of N-lobe (protein)
chain: PQSVVYQNEEGRWVTDLAYYTSDNSKQNLNVSLSDEMNEDDRSGSEAFDLDAQDEEEFNKEHQFIQ
modifications: left off: His6, N-terminal, cleaved | SUMO, N-terminal, cleaved
notes: CEP192 468-533 variant replacing hydrophobic residues recognising two regions of N-lobe
For B7, the IC50 in series [5] and in series [6] was more than 10 µM each time.

B8: CEP192 468-533 F508D/I518D/F525D: CEP192 468-533 triple mutant (protein, UniProt Q8TEP8 468-533, looked up, variant F508D I518D F525D)
chain: PQSVVYQNEEGRWVTDLAYYTSFNSKQNLNVSLSDEMNEDDRSGSEAFDLDAQDEEEDNKEHQFIQ
Regarding B8, the IC50 in series [5] and in series [6] was more than 10 µM in each case.

Source of the values: PMC11574021, “CEP192 localises mitotic Aurora-A activity by priming its interaction with TPX2” (The EMBO Journal, 2024).
